# Reference: US20240148828A1
# Target: NKG2D on human γδ T cells (human) (UniProt P26718)
# Assay: cell-based or functional assay
# NKG2D on human γδ T cells (human), sequence (P26718 whole entry, stated change not applied): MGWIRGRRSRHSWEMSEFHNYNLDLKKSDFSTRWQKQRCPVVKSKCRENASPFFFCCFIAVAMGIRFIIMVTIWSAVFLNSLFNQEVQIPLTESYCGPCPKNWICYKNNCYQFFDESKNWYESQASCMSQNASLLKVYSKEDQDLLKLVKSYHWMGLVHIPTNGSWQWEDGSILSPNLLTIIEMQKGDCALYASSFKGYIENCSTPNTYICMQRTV
substance,measurement,value
MICA-Fc fusion protein (from UniProt Q29983 24-307),"frequency of Vγ9+ T cells expressing CD107a (plate-bound, together with BTN2A1/3A1-Fc-CD19scFv)",18 % γδ T cells
MICB-Fc fusion protein (from UniProt Q29980 23-298),"frequency of Vγ9+ T cells expressing CD107a (plate-bound, together with BTN2A1/3A1-Fc-CD19scFv)",18 % γδ T cells
"anti-NKG2D antibody (Clone #149810, R&D Systems)","frequency of Vγ9+ T cells expressing CD107a (plate-bound, together with BTN2A1/3A1-Fc-CD19scFv)",30 % γδ T cells
